Assay results reported in article doi:10.1101/2021.04.18.440036.
Several values for one entry are separate records, joined by “and”; a condition that tells them apart may be missing. Identical values can stand only once.

Molecular target: protective antigen (PA) prepore (Bacillus anthracis)
Assay: cryo-EM structure

protective antigen (PA) prepore (complex)
stoichiometry N: 7 and 8
